Kd, koff and kon data for one molecule are collected here from publication PMC5934386, “Active Site Gate Dynamics Modulate the Catalytic Activity of the Ubiquitination Enzyme E2-25K” (Scientific Reports, 2018).

The experiment addresses T1, Human ubiquitin (human, UniProt P0CG48 1-76).
T1 construct: ubiquitin, human; the cut product of the ubiquitin precursors; also called acceptor Ub; source: bought: BostonBiochem (lyophilized)
Put plainly: NMR titration; 2D 1H-15N HSQC at 600 MHz; [U-15N]-E2-25K at 417-428 uM with ubiquitin at 0, 200, 400, 560, 790 and 1600 uM in six samples; PBS buffer (20 mM sodium phosphate, 150 mM NaCl, DTT, pH 7.4); chemical shift changes fit to a 1:1 binding isotherm; kon and koff from 15N lineshape analysis of G173 (Bloch-McConnell, two site exchange). As to conditions: both partners purified.

B1: Human E2-25K (enzyme, UniProt P61086 1-200, looked up)
chain: MANIAVQRIKREFKEVLKSEETSKNQIKVDLVDENFTELRGEIAGPPDTPYEGGRYQLEIKIPETYPFNPPKVRFITKIWHPNISSVTGAICLDILKDQWAAAMTLRTVLLSLQALLAAAEPDDPQDAVVANQYKQNPEMFKQTARLWAHVYAGAPVSSPEYTKKIENLCAMGFDRNAVIVALSSKSWDVETATELLLSN
notes: E2-25K (ubiquitin-conjugating enzyme, UBC core domain and UBA domain), human; called 'intact human E2-25K' in the results; cloned into pHis-parallel1; [U-15N]-labelled for the NMR titration; also called wildtype E2-25K; intact human E2-25K; source: E. coli BL21(DE3)-RIPL, purified (His-prep column, TEV cleavage, Superdex 75)
For orientation: Kd means the free concentration of one partner at which half of the binding sites on the other are occupied at equilibrium, for simple one-to-one binding. The term koff denotes the first-order rate constant of dissociation. As a reminder, the kon is the rate constant with which the complex forms. Regarding B1, the Kd was 206 ± 30 µM, the koff came to 5890 s⁻¹ and the kon turned out to be 2.9e+07 M⁻¹ s⁻¹.
